Laboratory results taken from patent US20200289560A1 (RUPRECHT KARLS UNIVERSIT T HEIDELBERG, published 2020).

Target: T1, human pyruvate kinase M2 (PKM2) (human, UniProt P14618 1-531)
T1 construct: also called tetrameric PK M2; human PK M2
Assay: ultrafiltration (Amicon 30k) of equimolar 2 µM human PK M2 and 2 µM human HMGB1, Western blot of filtrate and retentate
Protocol: Ultrafiltration of the PK M2-HMGB1 complex: equimolar amounts of HMGB1 and PKM2 were mixed in a final volume of 300 μl and filtrated (14000 g, 4° C.) to a final volume of 15 μl in an Amicon Ultra 0.5 ml 30k device (Merck-Millipore, Darmstadt, Germany). The retentate was adjusted to the original volume after centrifugation. Then filtrate and retentate were analyzed by Western Blot. For controls HMGB1 and PKM2 were also analyzed alone. Pure HMGB1 (2 μM) suited as a negative control.

T1 sequence (P14618 whole entry): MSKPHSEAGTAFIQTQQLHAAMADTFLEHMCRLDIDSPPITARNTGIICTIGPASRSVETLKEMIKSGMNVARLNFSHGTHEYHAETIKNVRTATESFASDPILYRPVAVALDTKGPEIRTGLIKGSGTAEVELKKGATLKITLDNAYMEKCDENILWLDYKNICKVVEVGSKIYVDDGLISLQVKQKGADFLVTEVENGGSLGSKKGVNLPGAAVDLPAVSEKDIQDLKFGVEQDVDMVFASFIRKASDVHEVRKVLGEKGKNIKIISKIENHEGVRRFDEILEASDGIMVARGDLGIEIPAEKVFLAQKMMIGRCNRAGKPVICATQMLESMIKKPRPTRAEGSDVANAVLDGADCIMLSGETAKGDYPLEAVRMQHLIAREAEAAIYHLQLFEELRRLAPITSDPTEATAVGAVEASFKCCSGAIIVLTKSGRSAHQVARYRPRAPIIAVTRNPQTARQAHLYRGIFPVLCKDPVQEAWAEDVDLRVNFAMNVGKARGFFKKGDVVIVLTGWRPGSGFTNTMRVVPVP

binding result: binds
B1: recombinant human HMGB1 protein (High Mobility Group Box 1 polypeptide) (other)
chain: MGKGDPKKPRGKMSSYAFFVQTCREEHKKKHPDASVNFSEFSKKCSERWKTMSAKEKGKFEDMAKADKARYEREMKTYIPPKGETKKKFKDPNAPKRPPSAFFLFCSEYRPKIKGEHPGLSIGDVAKKLGEMWNNTAADDKQPYEKKAAKLKEKYEKDIAAYRAKGKPDAAKKGVVKAEKSKKKKEEEEDEEDEEDEEEEEDEEDEDEEEDDDDE
notes: also called rhHMGB1; 125I-labelled HMGB1
